# Reference: patent US20040058393A1 (published 2004)
# T1: human TPO receptor (MPL) expressed on Ba/F3 cells (human, UniProt P40238 26-635)
# T1 sequence (looked up): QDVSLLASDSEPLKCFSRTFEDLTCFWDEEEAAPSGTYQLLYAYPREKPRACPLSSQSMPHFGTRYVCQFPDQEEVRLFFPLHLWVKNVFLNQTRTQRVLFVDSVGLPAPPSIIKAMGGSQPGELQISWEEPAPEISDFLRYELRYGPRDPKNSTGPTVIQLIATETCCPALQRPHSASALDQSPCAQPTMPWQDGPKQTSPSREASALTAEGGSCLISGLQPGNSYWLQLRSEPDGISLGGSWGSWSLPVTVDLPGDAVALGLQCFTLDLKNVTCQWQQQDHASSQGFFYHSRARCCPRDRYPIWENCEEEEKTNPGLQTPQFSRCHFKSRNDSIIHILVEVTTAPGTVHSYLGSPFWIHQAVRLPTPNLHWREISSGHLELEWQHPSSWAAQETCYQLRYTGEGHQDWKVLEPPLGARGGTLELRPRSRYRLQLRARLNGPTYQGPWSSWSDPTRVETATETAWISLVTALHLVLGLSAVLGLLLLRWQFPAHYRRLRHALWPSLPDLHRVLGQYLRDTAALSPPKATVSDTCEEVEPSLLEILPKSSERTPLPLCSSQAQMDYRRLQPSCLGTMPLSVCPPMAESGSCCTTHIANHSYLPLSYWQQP
# What was measured:
# [1] = biological target: T2, human Integrin Associated Protein (IAP) expressed on mouse leukemia cell line L1210 (human, UniProt Q08722 19-323); assay: flow cytometry, COS7 supernatant on hIAP/L1210 cells, anti-FLAG and FITC anti-mouse IgG
# T2 construct: whole, on cells; also called human IAP; hIAP/L1210
# T2 sequence (Q08722 19-323): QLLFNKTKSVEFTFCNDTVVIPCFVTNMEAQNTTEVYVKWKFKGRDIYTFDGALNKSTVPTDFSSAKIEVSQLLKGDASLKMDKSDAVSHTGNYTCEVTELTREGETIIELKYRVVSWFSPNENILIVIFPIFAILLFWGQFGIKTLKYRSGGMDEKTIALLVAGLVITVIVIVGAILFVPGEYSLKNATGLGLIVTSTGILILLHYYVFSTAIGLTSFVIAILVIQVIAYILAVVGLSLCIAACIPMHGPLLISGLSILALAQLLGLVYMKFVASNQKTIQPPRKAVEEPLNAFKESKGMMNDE
# Procedure: Flow cytometry was performed using the aforementioned COS7 cells culture supernatant to measure the binding to the antigen. The culture supernatant of the COS7 cells expressing the reconstructed single chain Fv of antibody MABL-2 or the culture supernatant of COS7 cells transformed with pCHO1 vector as a control was added to 2×10⁵ cells of the mouse leukemia cell line L1210 expressing human Integrin Associated Protein (IAP) or the cell line L1210 transformed with pCOS1 as a control. After incubating on ice and washing, the mouse anti-FLAG antibody (SIGMA) was added. Then the cells were incubated and washed. Then, the FITC labeled anti-mouse IgG antibody (BECTON DICKINSON) was added thereto and the cells were incubated and washed again. Subsequently, the fluorescence intensity was measured using the FACScan apparatus (BECTON DICKINSON).
# Flow cytometry was performed using the culture supernatants of COS7 cells prepared in Example 6.3 (1) to measure the binding of the MABL2-scFVs and sc(Fv)₂ to human Integrin Associated Protein (IAP) antigen. The culture supernatants to be tested or a culture supernatant of COS7 cells as a control was added to 2×10⁵ cells of the mouse leukemia cell line L1210 expressing human IAP. After incubating on ice and washing, 10 μg/mL of the mouse anti-FLAG antibody (SIGMA) was added and then the cells were incubated and washed. Then, the FITC labeled anti-mouse IgG antibody (BECTON DICKINSON) was added thereto and the cells were incubated and washed again. The fluorescence intensity was measured using the FACScan apparatus (BECTON DICKINSON). […] (see FIGS. 40a and 40b).
# [2] = biological target: T1, human TPO receptor (MPL) expressed on …; assay: cell-based or functional assay
# [3] = biological target: T2, human Integrin Associated Protein (IAP) …; assay: flow cytometry, COS7 supernatant on hIAP/L1210 cells, FITC anti-human IgG
# Procedure: Flow cytometry was performed using the aforementioned culture supernatant of COS7 cells to measure binding to the antigen. The culture supernatant of the COS7 cells expressing the chimera MABL-1 antibody or the COS7 cells expressing the chimera MABL-2 antibody, or human IgG antibody (SIGMA) as a control was added to 4×10⁵ cells of mouse leukemia cell line L1210 expressing human IAP and incubated on ice. After washing, the FITC-labeled anti-human IgG antibody (Cappel) was added thereto. After incubating and washing, the fluorescence intensity thereof was measured using the FACScan apparatus (BECTON DICKINSON).
# [4] = biological target: T3, secretion-type human IAP antigen (human, UniProt Q08722 19-142, limits assumed); assay: competitive ELISA on captured secretion-type human IAP; competitor biotinized MABL-2
# T3 construct: also called human IAP antigen (soluble, COS7 supernatant)
# T3 sequence (Q08722 other isoform, or with tags, fused parts or gaps limits assumed): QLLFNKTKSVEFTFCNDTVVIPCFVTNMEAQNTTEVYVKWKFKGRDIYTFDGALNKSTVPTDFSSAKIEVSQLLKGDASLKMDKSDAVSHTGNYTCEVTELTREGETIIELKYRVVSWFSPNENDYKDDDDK
# Procedure: The binding activity of the reconstructed single chain Fv of antibody MABL-2 was measured based on the inhibiting activity against the binding of mouse monoclonal antibodies to the antigen.
# The anti-FLAG antibody adjusted to 1 μg/ml was added to each well on 96-well plate and incubated at 37° C. for 2 hours. After washing, blocking was performed with 1% BSA-PBS. After incubating and washing at a room temperature, the culture supernatant of COS7 cells into which the secretion-type human IAP antigen gene (SEQ ID No. 26) had been introduced was diluted with PBS into twofold volume and added to each well. After incubating and washing at a room temperature, a mixture of 50 μl of the biotinized MABL-2 antibody adjusted to 100 ng/ml and 50 μl of sequentially diluted supernatant of the COS7 cells expressing the reconstructed single chain Fv of antibody MABL-2 were added into each well. After incubating and washing at a room temperature, the alkaline phosphatase-conjugated streptoavidin (Zymed) was added into each well. After incubating and washing at a room temperature, the substrate solution (SIGMA) was added and absorbance of the reaction mixture in each well was measured at 405 nm.
Binder,binding result [1],"ED50, TPO-like agonist activity (proliferation of BaF/mpl cells, WST-8) [2]",also measured
"antibody MABL-2 sc(Fv)2 (scFv, Single chain bivalent antibody; also called pCHOM2(Fv)2) scFv: QVQLQQSGPELVKPGASVKMSCKASGYTFANHVIHWVKQKPGQGLEWIGYIYPYNDGTKYNEKFKDKATLTSDKSSTTAYMDLSSLASEDSAVYYCARGGYYTYDDWGQGTTLTVSSGGGGSGGGGSGGGGSDVVMTQSPLSLPVSLGDQASISCRSSQSLVHSNGKTYLHWYLQKPGQSPKLLIYKVSNRFSGVPDRFSGSGSVTDFTLMISRVEAEDLGVYFCSQSTHVPYTFGGGTKLEIKGGGGSGGGGSGGGGSVDSQVQLQQSGPELVKPGASVKMSCKASGYTFANHVIHWVKQKPGQGLEWIGYIYPYNDGTKYNEKFKDKATLTSDKSSTTAYMDLSSLASEDSAVYYCARGGYYTYDDWGQGTTLTVSSGGGGSGGGGSGGGGSDVVMTQSPLSLPVSLGDQASISCRSSQSLVHSNGKTYLHWYLQKPGQSPKLLIYKVSNRFSGVPDRFSGSGSVTDFTLMISRVEAEDLGVYFCSQSTHVPYTFGGGTKLEIKDYKDDDDK",binds,,
"12B5Fab (Fab, V domains shown) VH: QVQLVQSGGGLVRPGGSLSLSCAVSGITLRTYGMHWVRQAPGKGLEWVAGISFDGRSEYYADSVQGRFTISRDSSKNTLYLQMNSLRAEDTAVYYCARGAHYGFDIWGQGTMVTVSS VL: DIQMTQSPSTLSASIGDRVTITCRASEGIYHWLAWYQQKPGKAPKLLIYKASSLASGAPSRFSGSGSGTDFTLTISSLQPDDFATYYCQQYSNYPLTFGGGTKLEIK",,34700 nM,
"reconstructed 12B5 single chain Fv (sc12B5), culture supernatant of COS-7 cells (scFv) scFv: QVQLVQSGGGLVRPGGSLSLSCAVSGITLRTYGMHWVRQAPGKGLEWVAGISFDGRSEYYADSVQGRFTISRDSSKNTLYLQMNSLRAEDTAVYYCARGAHYGFDIWGQGTMVTVSSGGGGSGGGGSGGGGSDIQMTQSPSTLSASIGDRVTITCRASEGIYHWLAWYQQKPGKAPKLLIYKASSLASGAPSRFSGSGSGTDFTLTISSLQPDDFATYYCQQYSNYPLTFGGGTKLEIKDYKDDDDK",,75 nM,
sc12B5 monomer (scFv) scFv: QVQLVQSGGGLVRPGGSLSLSCAVSGITLRTYGMHWVRQAPGKGLEWVAGISFDGRSEYYADSVQGRFTISRDSSKNTLYLQMNSLRAEDTAVYYCARGAHYGFDIWGQGTMVTVSSGGGGSGGGGSGGGGSDIQMTQSPSTLSASIGDRVTITCRASEGIYHWLAWYQQKPGKAPKLLIYKASSLASGAPSRFSGSGSGTDFTLTISSLQPDDFATYYCQQYSNYPLTFGGGTKLEIKDYKDDDDK,,4440 nM,
"chimera MABL-1 antibody (antibody, V domains shown, Mouse V regions cloned into HEF-gamma and HEF-kappa vectors with human C regions; COS7 culture supernatant) VH: QVQLQQSGPDLVKPGASVKMSCKASGYTFVNHVMHWVKQKPGQGLEWIGYIYPYNDGTKYNEKFKGKATLTSEKSSSAAYMELSSLASEDSAVYYCARGGYYSYDDWGQGTTLTVSS VL: DVVMTQTPLSLPVSLGDQASISCRSSQSLLHSKGNTYLQWYLQKPGQSPKLLIYKVSNRFSGVPDRFSGSGSGTDFTLKISRVEAEDLGVYFCSQSTHVPYTSGGGTKLEIK",,,binding result [3]: binds
"chimera MABL-2 antibody (antibody, V domains shown, Mouse V regions cloned into HEF-gamma and HEF-kappa vectors with human C regions; COS7 culture supernatant) VH: QVQLQQSGPELVKPGASVKMSCKASGYTFANHVIHWVKQKPGQGLEWIGYIYPYNDGTKYNEKFKDKATLTSDKSSTTAYMDLSSLASEDSAVYYCARGGYYTYDDWGQGTTLTVSS VL: DVVMTQSPLSLPVSLGDQASISCRSSQSLVHSNGKTYLHWYLQKPGQSPKLLIYKVSNRFSGVPDRFSGSGSVTDFTLMISRVEAEDLGVYFCSQSTHVPYTFGGGTKLEIK",,,binding result [3]: binds
"reconstructed single chain Fv of antibody MABL-2 (pCHOM2, COS7 culture supernatant) (scFv, Unpurified COS7 supernatant; also called MABL2-scFv; MABL2-scFv/COS7) scFv: QVQLQQSGPELVKPGASVKMSCKASGYTFANHVIHWVKQKPGQGLEWIGYIYPYNDGTKYNEKFKDKATLTSDKSSTTAYMDLSSLASEDSAVYYCARGGYYTYDDWGQGTTLTVSSGGGGSGGGGSGGGGSDVVMTQSPLSLPVSLGDQASISCRSSQSLVHSNGKTYLHWYLQKPGQSPKLLIYKVSNRFSGVPDRFSGSGSVTDFTLMISRVEAEDLGVYFCSQSTHVPYTFGGGTKLEIKDYKDDDDK",binds,,binding result [4]: binds

# The next lines start with results.
binding result [1],"ED50, TPO-like agonist activity (proliferation of BaF/mpl cells, WST-8) [2]",Binder,also measured
binds,,"MABL2-scFv <LH-0> (scFv, COS7 culture supernatant; also called CF2LH-0/pCOS1) scFv: DVVMTQSPLSLPVSLGDQASISCRSSQSLVHSNGKTYLHWYLQKPGQSPKLLIYKVSNRFSGVPDRFSGSGSVTDFTLMISRVEAEDLGVYFCSQSTHVPYTFGGGTKLEIKQVQLQQSGPELVKPGASVKMSCKASGYTFANHVIHWVKQKPGQGLEWIGYIYPYNDGTKYNEKFKDKATLTSDKSSTTAYMDLSSLASEDSAVYYCARGGYYTYDDWGQGTTLTVSSDYKDDDDK",
,29 nM,"antibody 12B5 (IgG) (antibody, V domains shown) VH: QVQLVQSGGGLVRPGGSLSLSCAVSGITLRTYGMHWVRQAPGKGLEWVAGISFDGRSEYYADSVQGRFTISRDSSKNTLYLQMNSLRAEDTAVYYCARGAHYGFDIWGQGTMVTVSS VL: DIQMTQSPSTLSASIGDRVTITCRASEGIYHWLAWYQQKPGKAPKLLIYKASSLASGAPSRFSGSGSGTDFTLTISSLQPDDFATYYCQQYSNYPLTFGGGTKLEIK",
,10.1 nM,sc12B5 dimer (scFv) scFv: QVQLVQSGGGLVRPGGSLSLSCAVSGITLRTYGMHWVRQAPGKGLEWVAGISFDGRSEYYADSVQGRFTISRDSSKNTLYLQMNSLRAEDTAVYYCARGAHYGFDIWGQGTMVTVSSGGGGSGGGGSGGGGSDIQMTQSPSTLSASIGDRVTITCRASEGIYHWLAWYQQKPGKAPKLLIYKASSLASGAPSRFSGSGSGTDFTLTISSLQPDDFATYYCQQYSNYPLTFGGGTKLEIKDYKDDDDK,fold agonist activity against monovalent sc12B5 [2]: ~400 fold
binds,,"MABL2-scFv <HL-0> (scFv, COS7 culture supernatant; also called CF2HL-0/pCOS1) scFv: QVQLQQSGPELVKPGASVKMSCKASGYTFANHVIHWVKQKPGQGLEWIGYIYPYNDGTKYNEKFKDKATLTSDKSSTTAYMDLSSLASEDSAVYYCARGGYYTYDDWGQGTTLTVSSDVVMTQSPLSLPVSLGDQASISCRSSQSLVHSNGKTYLHWYLQKPGQSPKLLIYKVSNRFSGVPDRFSGSGSVTDFTLMISRVEAEDLGVYFCSQSTHVPYTFGGGTKLEIKDYKDDDDK",
